Data as given in patent publication US20210040221A1 (published 2021).
Positions count from the first letter of the chain named. Where two headings read alike, the source gives them in different places.

Experiments:
[1] = target: T1, recombinant human CD25 his tagged (UniProt P01589 22-213); test: SPR (Biacore 2000)
T1 chain: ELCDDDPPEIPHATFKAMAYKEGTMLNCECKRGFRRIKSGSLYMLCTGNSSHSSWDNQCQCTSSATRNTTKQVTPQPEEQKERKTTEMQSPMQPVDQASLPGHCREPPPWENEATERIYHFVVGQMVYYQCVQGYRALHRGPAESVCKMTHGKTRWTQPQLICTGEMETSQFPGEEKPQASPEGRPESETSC

[2] = target: T1, recombinant human CD25 his tagged; test: SPR (Biacore 2000)

B1: Antibody 3 (antibody, V domains shown)
VH: EVQLLESGGGLVQPGGSLRLSCAASGFTFSSYGMSWVRQAPGKGLELVSTINGYGDTTYYPDSVKGRFTISRDNAKNTLYLQMNSLRAEDTAVYFCARDRDYGNSYYYALDYWGQGTLVTVSS
VL: EIVLTQSPGTLSLSPGERATLSCRASSSVSFMHWLQQKPGQAPRPLIYATSNLASGIPDRFSGSGSGTDYTLTISRLEPEDFAVYYCQQWSSNPPAFGQGTKLEIK
For B1, the Kd [1] was 6.1 nM.

B2: Antibody 4 (antibody, V domains shown)
VH: B1 VH
VL: B1 VL with E1Q, A42S
B2 was tested, and the Kd [1] was 5.5 nM.

B3: Antibody 2 (antibody, V domains shown)
VH: B1 VH with A75S, F95Y
VL: B1 VL with E1Q, A42S
For B3, the Kd [2] was 6.1 nM.

B4: Antibody 1 (antibody, V domains shown)
VH: B1 VH with A75S, F95Y
VL: B1 VL
In the case of B4, the Kd [2] is reported as 4.7 nM.
